Measurements from patent publication US20090269840A1 (UCB, published 2009).

Tests used:
[1] = target: T1, 7 Ig-domain human KDR fused to human Fc (human, UniProt P35968 20-764); assay: BIAcore, KDR-Fc captured on anti-Fc chip, fragment passed over
T1 construct: domain: 7 Ig-domain; also called human 7-domain KDR-Fc; KDR-Fc; not shown: human Fc
From the text: (§1) 7 Ig-domain human KDR fused to human Fc was captured on a chip coated with anti-Fc, and the various fragments of the CDR grafted antibody g165 and the murine parent antibody VR165 were passed over permitting affinity determination. The table below summarises the results obtained. In this assay format, there is an advantage of divalency as shown by the lower off rates (Kd) of the divalent species. The affinity of the grafted DFM is very similar to the murine IgG, with the DFM-PEG showing a minor reduction of affinity.

[2] = target: T1, 7 Ig-domain human KDR fused to human Fc; assay: radioimmunoassay: 7 Ig-domain KDR-human Fc captured by polyclonal anti-Fc on a microtitre plate, fragment added, then 125-I labeled VEGF-165 as the blocked ligand
Protocol: The ability of the fragments to block VEGF binding to KDR was measured in a radioimmunoassay.

[3] = target: T1, 7 Ig-domain human KDR fused to human Fc; assay: BIAcore, KDR-Fc captured on anti-Fc chip, antibody passed over
From the text: as §1

T1 sequence (P35968 20-764 limits assumed): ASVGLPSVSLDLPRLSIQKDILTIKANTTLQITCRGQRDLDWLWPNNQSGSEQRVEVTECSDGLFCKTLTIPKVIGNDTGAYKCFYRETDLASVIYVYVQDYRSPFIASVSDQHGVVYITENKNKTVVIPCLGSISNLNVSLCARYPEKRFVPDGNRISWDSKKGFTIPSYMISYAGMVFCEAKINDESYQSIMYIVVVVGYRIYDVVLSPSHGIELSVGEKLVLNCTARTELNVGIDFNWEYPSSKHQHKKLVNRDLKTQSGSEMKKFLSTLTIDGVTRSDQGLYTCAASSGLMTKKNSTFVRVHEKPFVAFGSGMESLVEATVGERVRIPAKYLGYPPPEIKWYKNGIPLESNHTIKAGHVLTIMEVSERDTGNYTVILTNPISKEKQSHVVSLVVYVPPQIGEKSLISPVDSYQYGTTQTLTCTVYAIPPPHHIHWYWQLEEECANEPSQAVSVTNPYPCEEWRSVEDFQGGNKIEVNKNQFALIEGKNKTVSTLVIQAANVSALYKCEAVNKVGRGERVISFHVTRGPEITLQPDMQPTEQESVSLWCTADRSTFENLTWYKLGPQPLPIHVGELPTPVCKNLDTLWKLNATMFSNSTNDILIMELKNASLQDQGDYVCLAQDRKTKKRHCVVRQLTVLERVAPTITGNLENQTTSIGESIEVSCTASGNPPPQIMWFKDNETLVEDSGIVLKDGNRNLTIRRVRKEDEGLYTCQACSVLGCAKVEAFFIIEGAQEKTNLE

| Binder | Kd [1] [nM] | IC50 (read off the curve) [2] [µg/mL] | Kd [3] [nM] |
| --- | --- | --- | --- |
| g165 modified Fab (Fab') fragment, CDP791 (Fab, V domains shown, g165 = gL3gH3; no limits stated; also called CDP791 Fab) VH: EVQLVESGGGLVQPGGSLRLSCAASGFTFSSYGMSWVRQAPGKGLEWVATITSGGSYTYYVDSVKGRFTISRDNAKNTLYLQMNSLRAEDTAVYYCVRIGEDALDYWGQGTLVTVSS VL: DIQMTQSPSSLSASVGDRVTITCRASQDIAGSLNWLQQKPGKAIKRLIYATSSLDSGVPKRFSGSRSGSDYTLTISSLQPEDFATYYCLQYGSFPPTFGQGTKVEIKR | 0.91 | ~0.2 |  |
| g165 FAB-PEG40 (PEGylated modified Fab of g165) (Fab, V domains shown, single cysteine of the truncated hinge linked to (mPEG)-lysyl maleimide (two mPEG of about 20,000 Da, about 40,000 Da in all), no limits stated) VH: EVQLVESGGGLVQPGGSLRLSCAASGFTFSSYGMSWVRQAPGKGLEWVATITSGGSYTYYVDSVKGRFTISRDNAKNTLYLQMNSLRAEDTAVYYCVRIGEDALDYWGQGTLVTVSS VL: DIQMTQSPSSLSASVGDRVTITCRASQDIAGSLNWLQQKPGKAIKRLIYATSSLDSGVPKRFSGSRSGSDYTLTISSLQPEDFATYYCLQYGSFPPTFGQGTKVEIKR | 1.07 |  |  |
| g165 DFM-PEG40 (PEGylated di-(modified Fab) of g165) (other, hinge cysteine linked to (mPEG)-lysyl bis-maleimide (PEG about 40 kDa), no limits stated) light: DIQMTQSPSSLSASVGDRVTITCRASQDIAGSLNWLQQKPGKAIKRLIYATSSLDSGVPKRFSGSRSGSDYTLTISSLQPEDFATYYCLQYGSFPPTFGQGTKVEIKRTVAAPSVFIFPPSDEQLKSGTASVVCLLNNFYPREAKVQWKVDNALQSGNSQESVTEQDSKDSTYSLSSTLTLSKADYEKHKVYACEVTHQGLSSPVTKSFNRGEC heavy: EVQLVESGGGLVQPGGSLRLSCAASGFTFSSYGMSWVRQAPGKGLEWVATITSGGSYTYYVDSVKGRFTISRDNAKNTLYLQMNSLRAEDTAVYYCVRIGEDALDYWGQGTLVTVSSASTKGPSVFPLAPSSKSTSGGTAALGCLVKDYFPEPVTVSWNSGALTSGVHTFPAVLQSSGLYSLSSVVTVPSSLGTQTYICNVNHKPSNTKVDKKVEPKSCDKTHTCAA | 0.041 | ~0.05 |  |
| g165 DFM (di-(modified Fab) of the CDR-grafted antibody g165, naked) (other, hinge cysteine cross-linked to the second Fab' (linker of the naked DFM not described), also called grafted DFM; naked DFM) light: DIQMTQSPSSLSASVGDRVTITCRASQDIAGSLNWLQQKPGKAIKRLIYATSSLDSGVPKRFSGSRSGSDYTLTISSLQPEDFATYYCLQYGSFPPTFGQGTKVEIKRTVAAPSVFIFPPSDEQLKSGTASVVCLLNNFYPREAKVQWKVDNALQSGNSQESVTEQDSKDSTYSLSSTLTLSKADYEKHKVYACEVTHQGLSSPVTKSFNRGEC heavy: EVQLVESGGGLVQPGGSLRLSCAASGFTFSSYGMSWVRQAPGKGLEWVATITSGGSYTYYVDSVKGRFTISRDNAKNTLYLQMNSLRAEDTAVYYCVRIGEDALDYWGQGTLVTVSSASTKGPSVFPLAPSSKSTSGGTAALGCLVKDYFPEPVTVSWNSGALTSGVHTFPAVLQSSGLYSLSSVVTVPSSLGTQTYICNVNHKPSNTKVDKKVEPKSCDKTHTCAA | 0.029 |  |  |
| mouse monoclonal antibody VR165 (antibody, mouse IgG2a, V domains shown, also called mIgG; murine IgG) VH: EVQLVESGGDLVKPGGSLKLSCAASGFTFSSYGMSWVRQTPDKRLQWVATITSGGSYTYYPDTVKGRFTISRDNAENTLYLQMSSLKSEDTAMYYCVRIGEDALDYWGQGTSVTVSS VL: DIQMTQSPSSLSASLGERVSLTCRASQDIAGSLNWLRQEPDGTIKRLIYATSSLDSGVPKRFSGSRSGSDYSLTISSLESEDFVDYYCLQYGSFPPTFGGGSKLEIKR |  |  | 0.03 |
